The record followed here is paper PMC7968997.

Positions count from the first letter of the chain named.

What all share (assay): fluorescence polarization
A general note: Polarisation of emitted light reports the rotation of a fluorescent probe.

Data set [1] has as its target T1, RRM1 analog F29A (Homo sapiens, UniProt Q8IUH3 23-202, F29A;F124A;Y165A).
T1 sequence: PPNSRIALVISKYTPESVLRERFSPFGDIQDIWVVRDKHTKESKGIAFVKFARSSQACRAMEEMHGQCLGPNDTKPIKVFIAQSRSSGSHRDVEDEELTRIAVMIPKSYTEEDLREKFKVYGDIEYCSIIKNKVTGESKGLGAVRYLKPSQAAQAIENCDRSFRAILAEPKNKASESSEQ

The target in data set [2] is T2, RRM2 analog Y165A (Homo sapiens, UniProt Q8IUH3 23-202, F29A;F70A;Y165A).
T2 sequence: T1 sequence with F48A, A102F

The target of data set [3] is T3, RRM1 analog D53A (Homo sapiens, UniProt Q8IUH3 23-202, D53A;F124A;Y165A).
T3 sequence: T1 sequence with A7F, D31A

Data set [4] concerns the target T4, RRM1 analog D114A (Homo sapiens, UniProt Q8IUH3 23-202, D114A;F124A;Y165A).
T4 sequence: T1 sequence with A7F, D92A

Data set [5] addresses T5, RRM1 analog W55A (Homo sapiens, UniProt Q8IUH3 23-202, W55A;F124A;Y165A).
T5 sequence: T1 sequence with A7F, W33A

Data set [6] has as its target T6, RRM2 analog F124A (Homo sapiens, UniProt Q8IUH3 23-202, F29A;F70A;F124A).
T6 sequence: T1 sequence with F48A, A143Y

As for GGACGG (ssRNA) [GGACGG RNA], the Kd – broadly, a measure of binding affinity in units of concentration – in data set [1] was found to be 7.38 µM; in data set [2] it was 20.4 µM; in data set [3] it was 1990 nM; in data set [4], 1130 nM; in data set [5], 3.54 µM; in data set [6], 15.6 µM.
